# Measured values taken from patent EP2848696A1, “Caspase-1 imaging probes” (Sanofi-Aventis Deutschland GmbH, priority 2013, dated 2015).
# B1: Caspase-1 (Homo sapiens) (protein)
# chain 1: NPAMPTSSGSEGNVKLCSLEEAQRIWKQKSAEIYPIMDKSSRTRLALIICNEEFDSIPRRTGAEVDITGMTMLLQNLGYSVDVKKNLTASDMTTELEAFAHRPEHKTSDSTFLVFMSHGIREGICGKKHSEQVPDILQLNAIFNMLNTKNCPSLKDKPKVIIIQACRGDSPGVVWFKD
# chain 2: AIKKAHIEKDFIAFCSSTPDNVSWRHPTMGSVFIGRLIEHMQEYACSCDVEEIFRKVRFSFEQPDGRAQMPTTERVTLTRCFYLFPGH
# Assays:
# Experiment in all cases: Kinetic characterization (Km and kcat/Km of probe hydrolysis)
# Assay type in all cases: biochemical
# Details in all cases: other: caspase-1 added to increasing probe concentrations; initial velocities; nonlinear regression
# [1] = substrate: CCN(CC)c1ccc2cc(C(=O)NNC(=O)[C@H](CC(=O)O)NC(=O)[C@@H]3CCCN4C(=O)CC[C@H](NC(=O)c5cc6cc(Br)c(O)cc6oc5=O)C(=O)N34)c(=O)oc2c1
# Description: (§1) Km and kcat/Km values were determined using standard methods (Kindermann et al., 2010; Rozman Pungercar et al., 2003). Caspase-1 was added to increasing concentrations of the probe and initial velocities of probe hydrolysis were calculated from the slopes of the lines of the fluorescence increase. Km and kcat (Vmax) values were then determined by nonlinear regression analysis using the Prism program.
# [2] = substrate: CCN(CC)c1ccc2cc(C(=O)NNC(=O)[C@H](CC(=O)O)NC(=O)[C@@H]3CCCN4C(=O)CC[C@H](NC(=O)c5cc6ccc(O)cc6oc5=O)C(=O)N34)c(=O)oc2c1
# Description: as §1
# [3] = substrate: CCN(CC)c1ccc2cc(C(=O)NNC(=O)[C@H](CC(=O)O)NC(=O)[C@@H]3CCCN4C(=O)CC[C@H](NC(=O)c5cc6ccc(OC)cc6oc5=O)C(=O)N34)c(=O)oc2c1
# Description: as §1
protein,measurement,setting,value
B1,Km,[1],5.9 µM µM
same,Km,[2],6.5 µM µM
same,Km,[3],4.2 µM µM
